Results from FireProtDB (doi:10.1016/0167-4838(93)90045-s).

Settings: Carica papaya, Thermal, DSC, glycine 0.05M, reversible: No, whole UniProt chain shown

B1: Papain wild type, P00784 (protein)
chain: MAMIPSISKLLFVAICLFVYMGLSFGDFSIVGYSQNDLTSTERLIQLFESWMLKHNKIYKNIDEKIYRFEIFKDNLKYIDETNKKNNSYWLGLNVFADMSNDEFKEKYTGSIAGNYTTTELSYEEVLNDGDVNIPEYVDWRQKGAVTPVKNQGSCGSCWAFSAVVTIEGIIKIRTGNLNEYSEQELLDCDRRSYGCNGGYPWSALQLVAQYGIHYRNTYPYEGVQRYCRSREKGPYAAKTDGVRQVQPYNEGALLYSIANQPVSVVLEAAGKDFQLYRGGIFVGPCGNKVDHAVAAVGYGPNYILIKNSWGTGWGENGYIRIKRGTGNSYGVCGLYTSSFYPVKN
pH 2.9
  Tm: 60.3 °C
  unfolding enthalpy (calorimetric): 133 kcal/mol
pH 3.8
  Tm: 78.5 °C
  unfolding enthalpy (calorimetric): 198 kcal/mol
pH 4.1
  Tm: 81.8 °C
  unfolding enthalpy (calorimetric): 211 kcal/mol
